Data on 1 molecule can be found in article doi:10.1101/2024.02.03.578754 (bioRxiv, 2024).

The target of the test is Arabidopsis thaliana O-acetylserine sulfhydrylase (OASS) (Arabidopsis thaliana, UniProt P47998 3-322). As to the kind of experiment: fluorescence polarisation.

Where no end group is shown, it is not given here.

Sequence of Arabidopsis thaliana O-acetylserine sulfhydrylase (OASS) (P47998 3-322): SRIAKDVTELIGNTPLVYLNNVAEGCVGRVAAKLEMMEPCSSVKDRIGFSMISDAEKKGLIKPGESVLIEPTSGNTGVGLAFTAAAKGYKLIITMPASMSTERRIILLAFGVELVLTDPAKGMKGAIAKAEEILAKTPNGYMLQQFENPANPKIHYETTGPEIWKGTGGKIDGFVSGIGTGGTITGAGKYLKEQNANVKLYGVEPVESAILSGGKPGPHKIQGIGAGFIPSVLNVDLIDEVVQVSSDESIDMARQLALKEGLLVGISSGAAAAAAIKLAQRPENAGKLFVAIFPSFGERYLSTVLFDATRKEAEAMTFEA

As for YLTEWSDYVI (also: FITC conjugate, position not given here) [FITC-labeled SAT-derived peptide YLTEWSDYVI (FITC-SATp)], the binding result is listed as “binds”.
